The results in this text go back to US20080027145A1, “Therapeutic Molecules and Methods for Generating and/or Selecting Same” (priority 2004, published 2008).

For orientation: IC50 means the concentration that gives 50% inhibition. A lower IC50 goes with greater potency in that assay.

Experiment [1] addresses T1, Bcl-2 ΔC22 (Homo sapiens, UniProt P10415).
T1 construct: Human Bcl-2 (Acc. no. NP_000624; residues 1-217); made in house
The experiment is described as follows: Bcl-2 ΔC22. Here is the method:
(§1) Table printed on a drawing sheet, FIGURE 2A
Head of the field: Bcl-2 ΔC22
The patent's description of the figure: FIG. 2 is a graphical representation showing pro-apoptotic BH3-only and pro-survival Bcl-2-like proteins have distinctive interactions. (A) Using competitive binding assays, the IC50 (nM) for the indicated interactions were determined. The results shown are from representative experiments; the variation observed in multiple experiments was less than two-fold (using different chips or protein batches). (B) Relative binding affinities of interactions (tabulated in A) were inversely plotted. The BH3 binding profiles of pro-survival proteins are shown. […] Color reproductions are available from the patentees on request.
(§2) First copying reader's note: The table itself prints no unit; IC50 (nM) is printed only on the axis of panel B of the same figure, which plots the same values.
Where the first naming reader finds the target: head: Bcl-2 ΔC22

Experiment [2] addresses T2, Bcl-xL ΔC24 (Homo sapiens, UniProt Q07817).
T2 construct: Human Bcl-xL (Acc. no. NP_612815; residues 1-209); GST (N, cleaved yes); made in house
The experiment is described as follows: Bcl-xL ΔC24. The method, then: as §1
Head of the field: Bcl-xL ΔC24
(§3) The patent's description of the figure: FIG. 2 is a graphical representation showing pro-apoptotic BH3-only and pro-survival Bcl-2-like proteins have distinctive interactions. (A) Using competitive binding assays, the IC50 (nM) for the indicated interactions were determined. The results shown are from representative experiments; the variation observed in multiple experiments was less than two-fold (using different chips or protein batches). (B) Relative binding affinities of interactions (tabulated in A) were inversely plotted. The BH3 binding profiles of pro-survival proteins are shown. In (C), the sequences of human Bcl-2 (residues 93-202), human Bcl-xL (86-195), human Bcl-w (42-151), mouse Mcl-1 (190-300) and mouse A1 (33-148) that form their BH3 binding grooves (α-helices 2 to 8; Hinds et al., EMBO J 22:1497-1507, 2003) were compared and presented as a phylogenetic tree. Color reproductions are available from the patentees on request.
as §2
Where the first naming reader finds the target: head: Bcl-xL ΔC24

The target of experiment [3] is T3, Bcl-w ΔC29 (Homo sapiens, UniProt Q92843, A128E/C29S).
T3 construct: human Bcl-w (Acc. no. NP_004041; residues 1-164; C29S A128E); made in house
T3 sequence (Q92843 1-164 C29S/A128E): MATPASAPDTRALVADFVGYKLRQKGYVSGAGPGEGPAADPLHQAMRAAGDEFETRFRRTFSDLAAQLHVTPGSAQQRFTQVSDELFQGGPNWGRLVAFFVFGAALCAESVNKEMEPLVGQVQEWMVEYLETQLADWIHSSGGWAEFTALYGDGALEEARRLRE
The experiment is described as follows: Bcl-w ΔC29. The method, then: as §1, §3, §2

The target of experiment [4] is T4, A1 ΔC20 (Mus musculus, UniProt Q07440).
T4 construct: mouse A1 (Acc. no. NP_033872; residues 1-152); GST (N, cleaved yes); made in house
T4 sequence (Q07440 1-152, stated change not applied): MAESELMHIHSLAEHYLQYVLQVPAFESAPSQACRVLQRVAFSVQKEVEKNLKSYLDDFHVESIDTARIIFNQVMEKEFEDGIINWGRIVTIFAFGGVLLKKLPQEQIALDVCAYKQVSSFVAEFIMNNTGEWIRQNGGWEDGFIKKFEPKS
The experiment is described as follows: A1 ΔC20. Here is the method: as §1
Head of the field: A1 ΔC20
as §3, §2
Where the first naming reader finds the target: head: A1 ΔC20

Experiment [5] concerns the target T5, FLAG-tagged Bcl-xL (Homo sapiens, UniProt Q07817).
T5 construct: expressed in transfected cells; host or cells: HEK293T
The experiment is described as follows: Co-immunoprecipitation in transfected 293T cells. In kind it is binding. Conditions: tagged full-length proteins. The text has this: (§4) Equivalent ^35S-labeled lysates harvested from 293T cells were immunoprecipitated with antibodies to the HA, FLAG (FL) or control (C) tags.
(§5) The maintenance, transfection and metabolic labeling of the human embryonic kidney (HEK) 293T cells with ^35S-methionine/cysteine (NEN) as well as co-immunoprecipitation have been described (Huang et al., Supra; Moriishi et al., Proc Natl Acad Sci USA 96:9683-9688, 1999; O'Conner et al., Supra). Briefly, equivalent TCA-precipitable lysates were immunoprecipiated using the mouse monoclonal antibodies to HA (HA.11; CRP), FLAG (M2; Sigma) and control Glu-Glu (CRP) tags. The proteins were resolved by SDS:PAGE, transferred onto nitrocellulose membranes and detected by fluorography (Amplify; Amersham Biosciences).
(§6) To verify the in vitro findings, interactions of selected pairs of the full-length N-terminally tagged proteins were investigated in mammalian cells by co-immunoprecipitation. […] The cells were metabolically labeled with ^35S-methionine/cysteine to permit semi-quantitative assessment of any interaction between co-associating radiolabeled proteins.
(§7) To verify the in vitro findings, selected pairs of the full-length N-terminally tagged proteins associated in mammalian cells were investigated by co-immunoprecipitation. […] The cells were metabolically labeled with ^35S-methionine/cysteine to permit semi-quantitative assessment of any interaction between the labeled proteins or interaction was gauged by the more sensitive western blotting.

Experiment [6] deals with T6, FLAG-tagged Mcl-1 (Mus musculus, UniProt P97287).
T6 construct: expressed in transfected cells; host or cells: HEK293T
T6 sequence (P97287 whole entry): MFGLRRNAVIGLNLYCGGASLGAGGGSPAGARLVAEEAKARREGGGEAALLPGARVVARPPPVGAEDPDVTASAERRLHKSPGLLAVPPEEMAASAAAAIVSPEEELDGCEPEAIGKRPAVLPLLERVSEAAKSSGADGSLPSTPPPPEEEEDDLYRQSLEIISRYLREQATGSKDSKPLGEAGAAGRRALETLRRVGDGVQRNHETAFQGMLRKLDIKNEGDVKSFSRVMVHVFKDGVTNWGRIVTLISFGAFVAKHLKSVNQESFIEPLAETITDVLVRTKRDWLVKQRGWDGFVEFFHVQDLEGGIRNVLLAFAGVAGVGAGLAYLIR
The experiment is described as follows: Co-immunoprecipitation in transfected 293T cells. The format is binding. Conditions: tagged full-length proteins.
Text: as §4, §5, §6, §7

The test system of experiment [7] is mouse embryonic fibroblasts (MEFs). The experiment is described as follows: Killing of MEFs after retroviral expression, viability 24 hours after infection. Conditions: retroviral expression, 24 hours after infection. In kind it is cell-based. Here is the method:
FIG. 7 is a graphical representation showing that BH3-only proteins that bind selective targets have weak killing activity. (A) The affinities of BH3-only peptides for pro-survival proteins (tabulated in FIG. 3A) were inversely plotted to facilitate comparison of the patterns of BH3 binding. […] Immortalized 3T9 MEFs were infected with retroviruses expressing only GFP (control), or one of the BH3-only proteins and GFP. The viability of the infected (GFP^+ve) cells was determined by PI exclusion 24 hours after infection. The histograms represent means±1SD of at least 3 experiments. […] The filter was probed with a rat monoclonal anti-FLAG antibody. *Degradation product of Mcl-1. […] Viability of MEFs infected with retroviruses encoding the indicated proteins (GFP^+ve) was analyzed 24 hours after infection. The histograms represent means±1SD of at least 3 experiments. (E) Long-term survival of MEFs infected with BH3 expressing retroviruses. One hundred retrovirally-infected cells were plated and the absolute number of GFP^+ve colonies formed after 6 days scored. […] The data represent the average number of GFP^+ve colonies formed±1SD from at least 3 experiments. To assess the biological relevance of the selective binding, retroviral delivery was used to compare the ability of different BH3-only proteins to kill wild-type mouse embryonic fibroblasts (MEFs). To monitor expression of the introduced gene, a vector (pMIG) in which its expression is coupled via an internal ribosomal entry site (IRES) to that of green fluorescent protein (GFP) was used (Van Parijs et al., Immunity 11:281-288, 1999). The cells were efficiently infected (>90%) and the introduced BH3-only proteins were comparably expressed. Viability of the infected (GFP^+ve) cells was scored 24 hours after infection (FIGS. 7A, 7B) and in long-term colony assays (FIG. 7E). […] Thus, the neutralization of Mcl-1 by Noxa should be complemented by co-expression of a BadBH3 to neutralize Bcl-2 and Bcl-xL in MEFs (FIG. 8A).

For experiment [8], the target named is T7, Mcl-1 ΔN151 ΔC23 (Mus musculus, UniProt P97287).
T7 construct: mouse Mcl-1 (Acc. no. NP_031588; residues 152-308); GST (N, cleaved yes); made in house
T7 sequence (P97287 152-308, stated change not applied): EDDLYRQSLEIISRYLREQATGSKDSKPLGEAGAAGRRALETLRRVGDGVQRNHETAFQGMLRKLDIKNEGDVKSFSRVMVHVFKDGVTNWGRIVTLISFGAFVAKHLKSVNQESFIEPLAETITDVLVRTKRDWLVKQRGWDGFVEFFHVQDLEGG
The experiment is described as follows: Mcl-1 ΔN151 ΔC23. The method, then:
as §1
Head of the field: Mcl-1 ΔN151 ΔC23
as §3, §2
Where the first naming reader finds the target: head: Mcl-1 ΔN151 ΔC23

Experiment [9] deals with mouse embryonic fibroblasts (MEFs). The experiment is described as follows: Long-term colony assay of retrovirally infected MEFs. In kind it is cell-based. Conditions: colonies after 6 days. The method, then: FIG. 7 is a graphical representation showing that BH3-only proteins that bind selective targets have weak killing activity. (A) The affinities of BH3-only peptides for pro-survival proteins (tabulated in FIG. 3A) were inversely plotted to facilitate comparison of the patterns of BH3 binding. […] Immortalized 3T9 MEFs were infected with retroviruses expressing only GFP (control), or one of the BH3-only proteins and GFP. The viability of the infected (GFP^+ve) cells was determined by PI exclusion 24 hours after infection. The histograms represent means±1SD of at least 3 experiments. […] The filter was probed with a rat monoclonal anti-FLAG antibody. *Degradation product of Mcl-1. […] Viability of MEFs infected with retroviruses encoding the indicated proteins (GFP^+ve) was analyzed 24 hours after infection. The histograms represent means±1SD of at least 3 experiments. (E) Long-term survival of MEFs infected with BH3 expressing retroviruses. One hundred retrovirally-infected cells were plated and the absolute number of GFP^+ve colonies formed after 6 days scored. […] The data represent the average number of GFP^+ve colonies formed±1SD from at least 3 experiments. […] Viability of the infected (GFP^+ve) cells was scored 24 hours after infection (FIGS. 7A, 7B) and in long-term colony assays (FIG. 7E).

T5 sequence (Q07817 whole entry): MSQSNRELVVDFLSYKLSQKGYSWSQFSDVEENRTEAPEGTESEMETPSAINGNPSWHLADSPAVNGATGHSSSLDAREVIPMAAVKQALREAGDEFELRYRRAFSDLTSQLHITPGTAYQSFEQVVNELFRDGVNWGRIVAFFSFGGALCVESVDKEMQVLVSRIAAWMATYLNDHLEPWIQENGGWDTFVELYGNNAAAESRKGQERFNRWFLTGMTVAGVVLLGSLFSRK
T1 sequence (P10415 1-217, stated change not applied): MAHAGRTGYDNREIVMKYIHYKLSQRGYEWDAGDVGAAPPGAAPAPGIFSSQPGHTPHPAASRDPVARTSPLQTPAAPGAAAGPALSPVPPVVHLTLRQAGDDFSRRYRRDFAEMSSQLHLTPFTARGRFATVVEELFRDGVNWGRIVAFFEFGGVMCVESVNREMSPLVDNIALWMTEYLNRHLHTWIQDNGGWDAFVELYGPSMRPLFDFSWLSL
T2 sequence (Q07817 1-209, stated change not applied): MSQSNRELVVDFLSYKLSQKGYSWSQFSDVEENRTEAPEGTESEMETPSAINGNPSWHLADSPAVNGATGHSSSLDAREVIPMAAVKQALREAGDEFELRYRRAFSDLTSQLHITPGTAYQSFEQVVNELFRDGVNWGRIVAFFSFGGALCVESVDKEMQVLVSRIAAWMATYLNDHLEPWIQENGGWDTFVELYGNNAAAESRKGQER

“Hrk: BH3-only protein Hrk expressed from retrovirus in MEFs”: the IC50 in [1] amounted to 320 nM; in experiment [2], 3.7 nM; in experiment [3], 49 nM; in experiment [4], 46 nM.
For the substance “Noxa m3: Noxa BH3 with K35E and F32I expressed in cells (Bims NoxaBH3 m3 in FIG. 9D) (PAELEVECATQLRRIGDELNFRQKLL)”, the “interaction with Bcl-xL by co-immunoprecipitation” value in experiment [5] is “bound”. Besides, the “interaction with Mcl-1 by co-immunoprecipitation” value in experiment [6] is listed as “binds”. Besides, the “killing of MEFs” value in experiment [7] is on record as “more potent killer than wild-type Noxa”.
As to “Puma: full-length human BH3-only protein Puma expressed in cells [listing 1 of 2 here]”, the IC50 was 5 nM in experiment [8] and 5.7 nM in experiment [4].
“Puma: full-length human BH3-only protein Puma expressed in cells [listing 2 of 2 here]”: in experiment [6], the “interaction with Mcl-1 by co-immunoprecipitation” value is on record as “well”. For the same substance, the “killing of MEFs” value in experiment [7] was “soon died”. The “long-term survival, GFP+ve colonies” value in [9] was “failed to generate colonies”.
